Results reported in patent US20100137208A1, “INTRATUMORALLY ADMINISTERED LACTOFERRIN IN THE TREATMENT OF MALIGNANTNEOPLASMS AND OTHER HYPERPROLIFERATIVE DISEASES” (priority 2002, published 2010).

Legend:
[1] = system: IL-18; test: IL-18 levels in small intestine and serum after oral rhLF or bLF (ELISA); format: in vivo, mice; conditions: for IL-18 level, Intestinal Extract / IL-18 level, Serum: 24 h after last dose
Procedure: Recombinant human lactoferrin and bovine lactoferrin were orally administered to mice, and the production of IL-18 in the small intestine was measured.
Mice were treated for three days daily with 65 mg/kg/day of rhLF, 300 mg/kg/day of rhLF or 300 mg/kg/day of bLF. For a control, mice were only administered the pharmaceutical carrier. Twenty-four hours following administration of the LF or control for 3 days, animals were weighed and blood and serum were collected. Serum was used for cytokine ELISA assays.
Also, at these time points, animals were sacrificed and the small intestinal tissue was removed for further analysis. Small intestinal epithelium was homogenized using a lysis buffer consisting of PBS, 1% Nonidet P-40, 0.5% sodium deoxycholate, and 0.1% sodium dodecyl sulphate containing 10 μg/ml PhenylMetheylsulfonyl fluoride. Homogenate was centrifuged at 15,000 rpm for 10 minutes and the supernatant stored at −80 C till it was tested for IL-18 levels.

[2] = system: metastatic cancer; test: Oral rhLF in human patients with metastatic cancer, tumor size by CT; format: in vivo
Procedure: Recombinant human lactoferrin was orally administered to human patients with a range of metastatic cancer types that had failed standard chemotherapy in two different studies conducted in multiple centers in four countries (Argentina, Brazil, Chile, U.S.) RhLF was administered at doses of 1.5 to 9 grams daily in two divided doses in cycles of 14 each with a 14 day gap.
Tumor size progression was monitored through CT scans and tumor markers where available. CT scans were performed at baseline and after each 8-week period once treatment was initiated, and also compared with a pre-baseline scan conducted prior to enrollment in the study. Tumor markers are measured every 4 weeks. Blood samples were collected to measure subclasses of circulating lymphocytes and NK cell activity. Plasma, serum and blood cell extract samples were collected to measure circulating IL-18, IL-1, IL-2, and IL-4, IL-5, IL-10, IL-12 and IFN-γ.

[3] = system: murine squamous carcinoma cell line (SCCVII); test: SCCVII floor-of-mouth tumor growth, oral rhLF and/or cisplatin; format: in vivo, C3H mice; conditions: rhLF 200 mg/Kg oral once daily days 5-12, no cisplatin
Procedure: A murine squamous carcinoma cell line (SCCVII) was injected into the floor of the mouth through the neck skin of immunocompetent C3H mice (Day 0). […] Tumors were measured in three dimensions with calipers.
Tumor-bearing mice were randomized into a control group and seven groups receiving rhLF and/or cisplatin. RhLF (4 mg; 200 mg/Kg) was administered once daily by oral gavage for 8 days on days 5 through 12. Cisplatin was administered as a single dose of 5 mg/Kg given intraperitoneally either at the start of rhLF (day 5), in the middle (day 8) or at the end (day 12) of rhLF therapy. Animals were sacrificed on day 12 post-implantation and the residual tumor masses were measured and processed for later additional analyses.
A murine squamous carcinoma cell line (SCCVII) was injected into the floor of the mouth through the neck skin of immunocompetent C3H mice (Day 0) as described in Example 6. On Day 5 days after initial implantation, tumors were measured for the baseline, then treated with either cisplatin (Day 8, i.p., 5 mg/kg) alone or cisplatin plus three doses of oral rhLF (daily by gavage for 7-8 days on days 5 through 11/12). Animals were sacrificed on Day 11/12 and tumors measured.

[4] = system: circulating lymphocytes; test: Circulating lymphocytes following intratumoral rhLF in tumor-bearing mice; format: in vivo, C3H/HeJ mice
Procedure: Normal C3H/HeJ mice were implanted with one of two mouse tumors following the methodology described in Example 17. Tumors used were SCCVII and RIF mouse tumor cell lines. Following establishment of the tumors in the mice, tumors were injected intratumorally daily for 4 days with 250 or 500 μg rhLF per dose or with vehicle control. Twenty four hours following the last intratumoral injection, animals were sacrificed and the blood examined for lymphocyte populations. The number of circulating lymphocytes were increased by 34% to 56% relative to the placebo treated control animals (Table 14).

[5] = system: GM-CSF; test: GM-CSF production in small intestine after oral rhLF (ELISA); format: in vivo, mice; conditions: oral 300 mg/kg/day for three days
Procedure: Recombinant human lactoferrin or placebo were orally administered to mice, and the production of GM-CSF in the small intestine was measured.
Mice (5 animals per group) were treated for three days daily with 300 mg/kg/day of rhLF. For a control, mice were only administered the pharmaceutical carrier. Twenty-four hours following administration of the LF or placebo for 3 days, animals were and the small intestinal tissue was removed for further analysis. Small intestinal epithelium was homogenized using a lysis buffer consisting of PBS, 1% Nonidet P-40, 0.5% sodium deoxycholate, and 0.1% sodium dodecyl sulphate containing 10 μg/ml PhenylMetheylsulfonyl fluoride. Homogenate was centrifuged at 15,000 rpm for 10 minutes and the supernatant stored at −80 C till it was tested for GM-CSF levels using an ELISA kit.

[6] = system: murine squamous carcinoma cell line (SCCVII); test: SCCVII floor-of-mouth tumor growth, oral rhLF and/or radiotherapy; format: in vivo, C3H mice
Procedure: A murine squamous carcinoma cell line (SCCVII) was injected into the floor of mouth through the neck skin of immunocompetent C3H mice (Day 0). […] Tumors were measured in three dimensions with calipers.
Tumor-bearing mice were randomized into six groups receiving rhLF (200 mg/Kg) and/or radiotherapy as described below. RhLF (4 mg; 200 mg/kg) was administered by oral gavage once daily for 8 days on days 5 through 12. Radiotherapy was administered as single dose of 2 Gray given at the beginning (day 5) or at during (day 8) rhLF-therapy. Animals were sacrificed on day 14 post-treatment and the residual tumor masses were measured and processed for later additional analyses.

[7] = oral 65 mg/kg/day for three days
[8] = oral 65 mg/kg/day rhLF versus 300 mg/kg bLF
[9] = oral 300 mg/kg/day for three days
[10] = oral 300 mg/kg/day rhLF versus 300 mg/kg bLF
[11] = blood, 24 h after 4 daily intratumoral doses of 250 or 500 μg, SCCVII or RIF tumors

B1: rhLF: recombinant human lactoferrin, a single chain metal binding glycoprotein (protein, UniProt P02788 20-710, looked up)
Lactotransferrin: GRRRSVQWCAVSQPEATKCFQWQRNMRKVRGPPVSCIKRDSPIQCIQAIAENRADAVTLDGGFIYEAGLAPYKLRPVAAEVYGTERQPRTHYYAVAVVKKGGSFQLNELQGLKSCHTGLRRTAGWNVPIGTLRPFLNWTGPPEPIEAAVARFFSASCVPGADKGQFPNLCRLCAGTGENKCAFSSQEPYFSYSGAFKCLRDGAGDVAFIRESTVFEDLSDEAERDEYELLCPDNTRKPVDKFKDCHLARVPSHAVVARSVNGKEDAIWNLLRQAQEKFGKDKSPKFQLFGSPSGQKDLLFKDSAIGFSRVPPRIDSGLYLGSGYFTAIQNLRKSEEEVAARRARVVWCAVGEQELRKCNQWSGLSEGSVTCSSASTTEDCIALVLKGEADAMSLDGGYVYTAGKCGLVPVLAENYKSQQSSDPDPNCVDRPVEGYLAVAVVRRSDTSLTWNSVKGKKSCHTAVDRTAGWNIPMGLLFNQTGSCKFDEYFSQSCAPGSDPRSNLCALCIGDEQGENKCVPNSNERYYGYTGAFRCLAENAGDVAFVKDVTVLQNTDGNNNEAWAKDLKLADFALLCLDGKRKPVTEARSCHLAMAPNHAVVSRMDKVERLKQVLLHQQAKFGRNGSDCPDKFCLFQSETKNLLFNDNTECLARLHGKTTYEKYLGPQYVAGITNLKKCSTSPLLEACEFLRK
- IL-18 Intestinal Extract % Increase Over Control [1, 7]: 725%
- IL-18 Serum % Increase Over Control [1, 7]: 84%
- IL-18 level, Intestinal Extract [1, 7]: 7,879 pg
- IL-18 level, Serum [1, 7]: 259 pg
- IL-18 Intestinal Extract % Increase Over Blf [1, 8]: 75%
- IL-18 Serum % Increase Over Blf [1, 8]: 94%
- IL-18 Intestinal Extract % Increase Over Control [1, 9]: 775%
- IL-18 Serum % Increase Over Control [1, 9]: 132%
- IL-18 level, Intestinal Extract [1, 9]: 8,350 pg
- IL-18 level, Serum [1, 9]: 328 pg
- IL-18 Intestinal Extract % Increase Over Blf [1, 10]: 85%
- IL-18 Serum % Increase Over Blf [1, 10]: 145%
- amounts of IL-18 in both the serum and in the intestinal extract ([1]; oral, both doses (65 and 300 mg/kg/day)): significantly enhanced
- Post Treatment 1 % Growth of tumor ([2]; Patient # 007, Lung, 7.5 weeks, pretreatment 160% (5.5 weeks)): 13%
- Post Treatment 2 % Growth of tumor ([2]; Patient # 007, Lung, 8.5 weeks, pretreatment 160% (5.5 weeks)): 12%
- Post Treatment 2 % Growth of tumor ([2]; Patient # 102, Ovarian, 8.5 weeks, pretreatment 30% (21 weeks)): −7%
- Post Treatment 1 % Growth of tumor ([2]; Patient # 102, Ovarian, 10.5 weeks, pretreatment 30% (21 weeks)): −5%
- Post Treatment 2 % Growth of tumor ([2]; Patient # 104, Gastric, 7 weeks, pretreatment 25% (5.5 weeks)): −5%
- Post Treatment 1 % Growth of tumor ([2]; Patient # 104, Gastric, 10 weeks, pretreatment 25% (5.5 weeks)): 10%
- Post Treatment 1 % Growth of tumor ([2]; Patient # 106, Melanoma, 11 weeks, pretreatment 24% (19 weeks)): −18%
- Post Treatment 2 % Growth of tumor ([2]; Patient # 204, Breast, 6.5 weeks, pretreatment 40% (8 weeks)): 0%
- Post Treatment 1 % Growth of tumor ([2]; Patient # 204, Breast, 10 weeks, pretreatment 40% (8 weeks)): 0%
- patients with stable disease by the RECIST criteria ([2]; oral 1.5 to 9 grams daily, nine of nineteen evaluable patients, first post-treatment scan): 47%
- TGI (%) Relative to Placebo [3]: 33%
- increase in number of circulating lymphocytes relative to placebo ([4]; across CD3+, CD4+, CD8+ populations): 34% to 56
- Number of Cells CD3+ [4, 11]: 3291
- Number of Cells CD4+ [4, 11]: 2621
- Number of Cells CD8+ [4, 11]: 1054
- Increase with rhLF, CD3+ cells ([4]; relative to placebo): 56%
- Increase with rhLF, CD4+ cells ([4]; relative to placebo): 46%
- Increase with rhLF, CD8+ cells ([4]; relative to placebo): 34%
- GM-CSF Increase over Placebo [5]: 19.4% (p < 0.01)
- GM-CSF level, Mean (SEM) ([5]; 5 animals per group): 7.74 (0.19) pg
- increase in TGI over monotherapy with radiation ([6]; both rhLF and radiation): 15%
- increase in TGI over monotherapy with rhLF ([6]; both rhLF and radiation): 28%
- Inhibition Relative to Placebo ([6]; rhLF 200 mg/kg oral days 5-12 plus 2 Gray on day 5): 68%
- Inhibition Relative to Placebo ([6]; rhLF 200 mg/kg oral days 5-12 plus 2 Gray on day 8): 66%
- Inhibition Relative to Placebo ([6]; rhLF 200 mg/kg oral days 5-12 plus 2 Gray, both radiation schedules pooled): 67%
- Inhibition Relative to Placebo ([6]; rhLF 200 mg/kg oral once daily days 5-12, no radiation): 54%
